From publication PMC8865655

Molecular target: Cry2-mCh-METTL3 (wild type, full-length construct), Q86U44
Test: FRET or BRET; FLIM-FRET in live HEK293T; EGFP fusion as donor, Cry2-mCh-METTL3 (mCherry) as acceptor; photons collected from inside condensates formed after blue light illumination (30 seconds)
Conditions: remark: other sources report otherwise

Sequence of Cry2-mCh-METTL3 (wild type, full-length construct), Q86U44 (Q86U44 whole entry, the tested form may be a part): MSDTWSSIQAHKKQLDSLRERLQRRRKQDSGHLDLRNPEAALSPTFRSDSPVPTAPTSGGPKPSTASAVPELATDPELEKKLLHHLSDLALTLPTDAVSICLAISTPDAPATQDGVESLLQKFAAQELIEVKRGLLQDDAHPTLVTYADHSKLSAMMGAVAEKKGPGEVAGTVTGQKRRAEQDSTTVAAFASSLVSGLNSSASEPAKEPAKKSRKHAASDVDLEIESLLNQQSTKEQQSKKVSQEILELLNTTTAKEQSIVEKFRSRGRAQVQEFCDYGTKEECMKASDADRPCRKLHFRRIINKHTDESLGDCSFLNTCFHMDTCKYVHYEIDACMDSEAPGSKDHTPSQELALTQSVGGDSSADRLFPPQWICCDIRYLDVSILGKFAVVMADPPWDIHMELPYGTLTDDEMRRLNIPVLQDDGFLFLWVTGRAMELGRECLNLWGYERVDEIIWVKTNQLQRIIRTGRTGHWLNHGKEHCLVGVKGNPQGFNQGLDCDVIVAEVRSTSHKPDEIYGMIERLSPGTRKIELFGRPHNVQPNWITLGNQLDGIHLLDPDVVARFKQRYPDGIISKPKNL

EGFP fluorescence lifetime (FLIM-FRET): 2.01 ns
B1: EGFP-WTAP, Q15007 1-396 (natural protein)
chain: MTNEEPLPKKVRLSETDFKVMARDELILRWKQYEAYVQALEGKYTDLNSNDVTGLRESEEKLKQQQQESARRENILVMRLATKEQEMQECTTQIQYLKQVQQPSVAQLRSTMVDPAINLFFLKMKGELEQTKDKLEQAQNELSAWKFTPDSQTGKKLMAKCRMLIQENQELGRQLSQGRIAQLEAELALQKKYSEELKSSQDELNDFIIQLDEEVEGMQSTILVLQQQLKETRQQLAQYQQQQSQASAPSTSRTTASEPVEQSEATSKDCSRLTNGPSNGSSSRQRTSGSGFHREGNTTEDDFPSSPGNGNKSSNSSEERTGRGGSGYVNQLSAGYESVDSPTGSENSLTHQSNDTDSSHDPQEEKAVSGKGNRTVGSRHVQNGLDSSVNVQGSVL
